# According to the RNAGym collection of RNA variant scans (doi:10.1073/pnas.2313332121):
# B1: TPR t1 (parent)
# chain: GACCAAUCUGCCCUCAGAGCUCGAGAACAUCUUCGGAUGCAGAGGAGGCAGGCUUCGGUGGCGCGAUAGCGCCAACGUCCUCAACCUCCAAUGCAUCCCACCACAUGAUGAUGCCUGAAGAGCCUUGGUUUUUUG
# Variants of: B1
# Test: polymerase ribozyme fitness, log enrichment relative to wild type (log ratio); higher = more active; in vitro selection for triplet polymerase activity
# Outline: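 Mutant libraries of both subunits of a heterodimeric triplet polymerase ribozyme were PCR-built, transcribed, and selected once in triplicate, with frozen incubation at −7 °C and capture of gel-excised extended constructs on streptavidin beads before RT-PCR. Illumina sequencing of input and output libraries was filtered to genotypes with ≥10 input reads and ≥1 read per output. Fitness is the logarithm of genotype enrichment over wild-type enrichment, using inverse-variance-weighted replicate averages. The logarithm is base 2.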
row,Variant,polymerase ribozyme fitness (log ratio)
1,G42U C56U C115G,-2.13
2,A41U G69U U78G C123U,1.47
3,G42A G44A A50C C115A,-4.02
4,G42C U116C U125A,-3.61
5,G42A C62U A83C U112A,-2.06
6,G42C G69U A91U C102U,-0.697
7,G42A A91G,-2.47
8,G42A G45C C49G U96A,-3.8
9,G42C A118G,-1.93
10,A41U G69U,-0.159
11,G42C G122A,-2.41
12,G42C G47U A108C G110A U112A,-7.49
13,G42C C89U C102A,-5.66
14,G42C G44C,-0.912
15,G42U G63A,-2.77
16,G42U G63C,-2.22
17,A41U U92C,-1.21
18,A41U C82U A103U G110C G122A,-7.14
19,G42A A46U G48A A66C A118U,-5.21
20,A41U C123G G135U,0.204
21,G42U A119U,-1.27
22,A41U G61A C82G G120A U125G,-2.63
23,G42C C89G,-1.06
24,G42U G45A G63C,-1.98

row,Variant,polymerase ribozyme fitness (log ratio)
1,G42A U112G,-2.1
2,G42C C124A,-0.168
3,A41U G60U C85A C94U,-1.72
4,G42A G135U,-2.72
5,A41U C49U,-2.03
6,G42A G61A C115A,-1.62
7,A41U G61C,-3.99
8,G42A G113U,-3
9,G42U G47C,-5.66
10,G42U G47U,-1.51
11,A41U G71A U92A G127C,-3.79
12,G42C C85G,-3.39
13,G42A C62U A83U C85U C124G G128U,-3.77
14,G42C A111G,-1.3
15,G42U C49A G69U,0.552
16,G42U C53U U59G C89A C124A,-0.557
17,G42A U126G,-3.7
18,G42A A90C U96A G117U,-5.05
19,G42C G63C C73A,-3.92
20,G42A C64U,-2.45
21,G42U G52A C72U U78A G128U,-4.36
22,G42U A43C C104U,-0.998
23,A41U C97U,-2.14
24,G42U C53U C82U G93A C99A G107U C114G C123G U125A G127A,-4.42

row,Variant,polymerase ribozyme fitness (log ratio)
1,A41U C89U U116A,-4.32
2,G42U C62A C73U U112C U130G,-3.26
3,G42A G47C C82U A84G,-3.91
4,A41U G63A C124U,-1.14
5,G42A G63C,-2.96
6,A41U U109G,-6.03
7,A41U C72G,-2.06
8,A41U U129C,-0.914
9,G42A C49U U112C,-0.387
10,G42A C82A A91C C115G,-4.43
11,G42A U59G C73U U112G C123A,-4.46
12,A41U C62U,-1.86
13,A41U C62A,-2.71
14,A41U C73G,-3.06
15,A41U G110A A121C G122A G128U,-5.21
16,A41U G117C,-4.87
17,G42C C53G,-1.2
18,G42C C56A,-1.76
19,G42C G117A,-2.18
20,G42C A84U,-1.87
21,G42A G77U G120C,-1.93
22,A41U G42C,-2.5
23,G42U G71A A100U,-4.8
24,G42U A50C C62U A84G C114G,-4.07

row,Variant,polymerase ribozyme fitness (log ratio)
1,G42U G69C C123A,-3.23
2,G42A C53U C88A C114A G127U,-5.52
3,G42A U116A,-3.72
4,G42A G44C G47C C97U G120U U130C,-3.09
5,G42A G58A,-1.77
6,G42U C88U G113U A121U U131G,-1.8
7,G42A C88A G110A,-4.27
8,G42A A43G C56A A66U A91G U96A U112G,-6.49
9,A41U C80A,-5.17
10,G42U C56U,-1.29
11,G42U C56G,-1.08
12,G42A U59A,-1.76
13,G42A G110U,-3.64
14,A41U C49G G52U U112C,-1.09
15,G42A U55A U112G C115A,-2.35
16,A41U U126G,-3.66
17,G42U C53G G69U,-0.375
18,G42U C72G C99A A103C C123U,-6.66
19,G42U G60A C101U A121G,0.281
20,G42A G117C A119U,-3.55
21,G42C G61C C79U A90C C115G G120U G122A,-4.78
22,A41U G93A U112A,-1.69
23,G42U G63A C82U,-2.86
24,A41U U125G,-1.97

row,Variant,polymerase ribozyme fitness (log ratio)
1,G42C A50U C76G A111U,-6.27
2,G42C G45U U133A,-2.53
3,A41U G128A,-2.79
4,G42U A91C G117C,-3.63
5,G42A G48U,-2.42
6,G42U C73A C114G,-1.95
7,G42A U54C G57A,-3.66
8,G42C U55A G113U G120U C123U U125A,-3.47
9,G42C C102A,-4.06
10,G42C A66G C89G,-4.07
11,G42U G69U,-0.0944
12,G42U G69C,-2.39
13,G42C G113C,-2.1
14,G42C C49G C72G,-3.71
15,A41U C49G A83C U133G,-1.44
16,G42A C72U C85U,-2.92
17,G42U A83C G127U,-2.25
18,G42A C72G G93U,-3.39
19,G42A C73G C79A U130A,-5.42
20,G42U A74U,-2.19
21,A41U G57U C82U,-1.52
22,A41U G48U C104A A121G G122A,-3.77
23,A41U C53U G120U,-1.89
24,G42C G47U G52C C114A A118G,-6.7

row,Variant,polymerase ribozyme fitness (log ratio)
1,A41U G69C U78C A100U,-6.25
2,G42C C79U A95G U129C,-2.57
3,G42A G61C,-3.18
4,G42A G61A,-1.27
5,G42U C76U A84U C88U,-2.62
6,G42A G52C,-2.26
7,G42A G60U,-2.08
8,G42U A50C A83G C97G C99U U106A G113U C124A,-7.66
9,G42C C88G C114G,-4.43
10,G42A C73A C89G,-2.01
11,G42U C72G G117U,-4.8
12,G42C G61A C124A U125A,0.506
13,G42A G117C,-3.8
14,G42A A119G,-0.491
15,A41U C49U U109A U130G,-6.38
16,G42C U109A,-5.54
17,G42A C72G,-2.43
18,G42A C72A,-1.98
19,G42A G45C,-2.81
20,A41U G42C G60U,-2.24
21,G42C A74U U96G C124U,-1.27
22,G42U G47A G69A,-4.71
23,G42C U106A C115U G120U,-4.34
24,G42U G63A A111G U112G C115A,-6

row,Variant,polymerase ribozyme fitness (log ratio)
1,G42U G52A C101U,-1.81
2,G42U C72G,-2.53
3,G42U C72A,-0.339
4,G42A G61U A83U,-2.11
5,G42A A46U C53A U87A,-2.21
6,G42A G60C C82A,-3.4
7,G42A G61A A83U A121U,0.412
8,G42U G71C A111C U130C,-3.75
9,G42A G63C C86A,-3.7
10,G42U C70G,-4.95
11,G42U C53G C56A,-1.17
12,G42A U106A G120U U132A,-2.41
13,A41U G63A C101A G113A A118U,-4.42
14,G42A G69C,-3.78
15,A41U C124U,0.983
16,A41U C124A,0.11
17,A41U G127C,-2.91
18,G42C G61U G120A,-0.458
19,G42A G120U,-1.82
20,G42A A66G C70U C89A U132A,-5.56
21,G42C C72U,-1.39
22,G42U C82G C115G,-3.58
23,G42C C70A C104U,-4.4
